According to patent publication US9482669B2, “Crystal structure of the NanR and ManNAc-6P complex, and uses thereof” (priority 2013, dated 2016):

Tested on: PnanTp
Assay: E. coli dual plasmid system (luciferase reporter fused to PnanTp)
Format: cell-based
Details: BSE1201 host, arabinose, presence or absence of Neu5Ac
Description: E. coli strains were co-transformed with a luciferase reporter plasmid (pBS0915) and one of the pNB-series of plasmids that express NanR. Cells were cultured overnight and then diluted into the appropriate fresh media (supplemented M9 in FIG. 3; LB in FIG. 4) containing arabinose (0.002%), and incubated at 37° C. until cells grew to early exponential phase. Relative luminescence unit (RLU) was calculated by dividing the luminescence by the A600, as described previously. For screening ligand-sensing residues, the BSE1201 strain (ΔaraBAD ΔnanE) was used as the host cell instead of DH5α to ensure that the arabinose was not used as a carbon source and that ManNAc-6P generated from Neu5Ac was accumulated in the cell.
To assess the importance of the interaction between ManNAc-6P and NanR to regulation of the nan genes, the residues involved in ligand-binding were mutated and the impact on NanR function was investigated using an E. coli dual plasmid system. Cells were cotransformed with plasmids containing a luciferase reporter gene fused to the NanR-binding nanT(PSL)AR promoter (PnanTp), and wild-type or mutant NanR, and then incubated in the presence of arabinose and the presence or absence of Neu5Ac.
The simplest helix-turn-helix (HTH)-containing DBD includes three core helices; the HTH domains can form tetra-helical bundle, winged helix, and ribbon-helix-helix type configurations. The DBD of NanR is composed of a six-helix bundle, which is not the archetypal conformation of HTH-containing domains; therefore, the recognition helix required for DNA-binding could not been determined. […] The importance of these residues to DNA-binding was examined using an E. coli dual plasmid system described in Example 2. The repressive effect of wild-type NanR on activity of PnanTp was abolished by the R57A, R57L, R60A, and R60L point mutations (FIG. 4c).

Molecule | luciferase activity (PnanTp) after addition of Neu5Ac
S138A: modified NanR protein, Ser138 substituted with alanine (protein) MGSPKNLLVRLRSNMEPFSKKLRVVADYILENAHDVQFQTITDLARNTQTSEATVVRLCRDMGYKGYSDFRMALAVDLSQTESRQQNHIEGDICDVSAQSAVDSLQDTAKLIDRKSLARIVERVHQAEFIGCIGVGAASIVGRYLAYRLIRIGKKAIMFEDTHLAAMSASRSSQGDLWFAVSSSGSTKEVIHAAGLAYKRDIPVVSLTNINHSPLSSLSTEMLVAARPEGPLTGGAFASKVGALLLVDVLVNSLLESYPEYKDSVQETAEVVIPLMAN | unable to activate PnanTp
H163L: modified NanR protein, His163 substituted with leucine (protein) MGSPKNLLVRLRSNMEPFSKKLRVVADYILENAHDVQFQTITDLARNTQTSEATVVRLCRDMGYKGYSDFRMALAVDLSQTESRQQNHIEGDICDVSAQSAVDSLQDTAKLIDRKSLARIVERVHQAEFIGCIGVGASSIVGRYLAYRLIRIGKKAIMFEDTLLAAMSASRSSQGDLWFAVSSSGSTKEVIHAAGLAYKRDIPVVSLTNINHSPLSSLSTEMLVAARPEGPLTGGAFASKVGALLLVDVLVNSLLESYPEYKDSVQETAEVVIPLMAN | unable to activate PnanTp
K240A: modified NanR protein, Lys240 substituted with alanine (protein) MGSPKNLLVRLRSNMEPFSKKLRVVADYILENAHDVQFQTITDLARNTQTSEATVVRLCRDMGYKGYSDFRMALAVDLSQTESRQQNHIEGDICDVSAQSAVDSLQDTAKLIDRKSLARIVERVHQAEFIGCIGVGASSIVGRYLAYRLIRIGKKAIMFEDTHLAAMSASRSSQGDLWFAVSSSGSTKEVIHAAGLAYKRDIPVVSLTNINHSPLSSLSTEMLVAARPEGPLTGGAFASAVGALLLVDVLVNSLLESYPEYKDSVQETAEVVIPLMAN | unable to activate PnanTp
H163A: modified NanR protein, His163 substituted with alanine (protein) MGSPKNLLVRLRSNMEPFSKKLRVVADYILENAHDVQFQTITDLARNTQTSEATVVRLCRDMGYKGYSDFRMALAVDLSQTESRQQNHIEGDICDVSAQSAVDSLQDTAKLIDRKSLARIVERVHQAEFIGCIGVGASSIVGRYLAYRLIRIGKKAIMFEDTALAAMSASRSSQGDLWFAVSSSGSTKEVIHAAGLAYKRDIPVVSLTNINHSPLSSLSTEMLVAARPEGPLTGGAFASKVGALLLVDVLVNSLLESYPEYKDSVQETAEVVIPLMAN | unable to activate PnanTp
S182A: modified NanR protein, Ser182 substituted with alanine (protein) MGSPKNLLVRLRSNMEPFSKKLRVVADYILENAHDVQFQTITDLARNTQTSEATVVRLCRDMGYKGYSDFRMALAVDLSQTESRQQNHIEGDICDVSAQSAVDSLQDTAKLIDRKSLARIVERVHQAEFIGCIGVGASSIVGRYLAYRLIRIGKKAIMFEDTHLAAMSASRSSQGDLWFAVASSGSTKEVIHAAGLAYKRDIPVVSLTNINHSPLSSLSTEMLVAARPEGPLTGGAFASKVGALLLVDVLVNSLLESYPEYKDSVQETAEVVIPLMAN | unable to activate PnanTp
S184A: modified NanR protein, Ser184 substituted with alanine (protein) MGSPKNLLVRLRSNMEPFSKKLRVVADYILENAHDVQFQTITDLARNTQTSEATVVRLCRDMGYKGYSDFRMALAVDLSQTESRQQNHIEGDICDVSAQSAVDSLQDTAKLIDRKSLARIVERVHQAEFIGCIGVGASSIVGRYLAYRLIRIGKKAIMFEDTHLAAMSASRSSQGDLWFAVSSAGSTKEVIHAAGLAYKRDIPVVSLTNINHSPLSSLSTEMLVAARPEGPLTGGAFASKVGALLLVDVLVNSLLESYPEYKDSVQETAEVVIPLMAN | as active as wild-type NanR
K240M: modified NanR protein, Lys240 substituted with methionine (protein) MGSPKNLLVRLRSNMEPFSKKLRVVADYILENAHDVQFQTITDLARNTQTSEATVVRLCRDMGYKGYSDFRMALAVDLSQTESRQQNHIEGDICDVSAQSAVDSLQDTAKLIDRKSLARIVERVHQAEFIGCIGVGASSIVGRYLAYRLIRIGKKAIMFEDTHLAAMSASRSSQGDLWFAVSSSGSTKEVIHAAGLAYKRDIPVVSLTNINHSPLSSLSTEMLVAARPEGPLTGGAFASMVGALLLVDVLVNSLLESYPEYKDSVQETAEVVIPLMAN | unable to activate PnanTp
E229L: modified NanR protein, Glu229 substituted with leucine (protein) MGSPKNLLVRLRSNMEPFSKKLRVVADYILENAHDVQFQTITDLARNTQTSEATVVRLCRDMGYKGYSDFRMALAVDLSQTESRQQNHIEGDICDVSAQSAVDSLQDTAKLIDRKSLARIVERVHQAEFIGCIGVGASSIVGRYLAYRLIRIGKKAIMFEDTHLAAMSASRSSQGDLWFAVSSSGSTKEVIHAAGLAYKRDIPVVSLTNINHSPLSSLSTEMLVAARPLGPLTGGAFASKVGALLLVDVLVNSLLESYPEYKDSVQETAEVVIPLMAN | unable to activate PnanTp

Same assay, conditions: point mutations in DBD

Molecule | repressive effect of NanR on activity of PnanTp
R57L: modified NanR protein, Arg57 substituted with leucine (protein) MGSPKNLLVRLRSNMEPFSKKLRVVADYILENAHDVQFQTITDLARNTQTSEATVVLLCRDMGYKGYSDFRMALAVDLSQTESRQQNHIEGDICDVSAQSAVDSLQDTAKLIDRKSLARIVERVHQAEFIGCIGVGASSIVGRYLAYRLIRIGKKAIMFEDTHLAAMSASRSSQGDLWFAVSSSGSTKEVIHAAGLAYKRDIPVVSLTNINHSPLSSLSTEMLVAARPEGPLTGGAFASKVGALLLVDVLVNSLLESYPEYKDSVQETAEVVIPLMAN | abolished
R60L: modified NanR protein, Arg60 substituted with leucine (protein) MGSPKNLLVRLRSNMEPFSKKLRVVADYILENAHDVQFQTITDLARNTQTSEATVVRLCLDMGYKGYSDFRMALAVDLSQTESRQQNHIEGDICDVSAQSAVDSLQDTAKLIDRKSLARIVERVHQAEFIGCIGVGASSIVGRYLAYRLIRIGKKAIMFEDTHLAAMSASRSSQGDLWFAVSSSGSTKEVIHAAGLAYKRDIPVVSLTNINHSPLSSLSTEMLVAARPEGPLTGGAFASKVGALLLVDVLVNSLLESYPEYKDSVQETAEVVIPLMAN | abolished

Tested on: nanTp-nanE intergenic region
Assay: EMSA of NanR with nanTp-nanE intergenic region
Format: binding, Vibrio vulnificus
Details: wild-type or mutant NanR
Description: Purified His-NanR protein was used to raise a primary polyclonal antibody by immunizing European rabbits (Oryctolagus curiculus). First, after one primary injection containing 500 μg of protein, three boosters containing 200 μg of protein was performed at 2-week intervals. Western blotting, EMSA and DNaseI footprinting assays were performed according to typical procedures known in the art.
NanR represses both nan T(PSL)AR and nanEK nagA operons by binding to an operator within the nanTp-nanE intergenic region. To examine the role of R57 and R60 residues in DNA binding, EMSA (electrophoretic gel mobility shift assays), in which the nanTp-nanE intergenic region was incubated with wild-type or mutant NanR in the absence or presence of ManNAc-6P, were performed.
The importance of K188 and K199 residues on all to binding of NanR to DNA was assessed by EMSA. […] Furthermore, the mutants were much more susceptible to ManNAc-6P than wild-type NanR (FIG. 10). […] The transcriptional control region of nan operon interacts with the dimer via the positively charged residues in this space (FIGS. 7b and 7c).

Molecule | DNA binding in EMSA
K188L (protein) MGSPKNLLVRLRSNMEPFSKKLRVVADYILENAHDVQFQTITDLARNTQTSEATVVRLCRDMGYKGYSDFRMALAVDLSQTESRQQNHIEGDICDVSAQSAVDSLQDTAKLIDRKSLARIVERVHQAEFIGCIGVGASSIVGRYLAYRLIRIGKKAIMFEDTHLAAMSASRSSQGDLWFAVSSSGSTLEVIHAAGLAYKRDIPVVSLTNINHSPLSSLSTEMLVAARPEGPLTGGAFASKVGALLLVDVLVNSLLESYPEYKDSVQETAEVVIPLMAN | not as conspicuous as that of wild-type NanR
K188A (protein) MGSPKNLLVRLRSNMEPFSKKLRVVADYILENAHDVQFQTITDLARNTQTSEATVVRLCRDMGYKGYSDFRMALAVDLSQTESRQQNHIEGDICDVSAQSAVDSLQDTAKLIDRKSLARIVERVHQAEFIGCIGVGASSIVGRYLAYRLIRIGKKAIMFEDTHLAAMSASRSSQGDLWFAVSSSGSTAEVIHAAGLAYKRDIPVVSLTNINHSPLSSLSTEMLVAARPEGPLTGGAFASKVGALLLVDVLVNSLLESYPEYKDSVQETAEVVIPLMAN | not as conspicuous as that of wild-type NanR
